The target in assay [1] is fusion protein of MBP with region 524-562 of human membrane-anchored form ADAM28 (SEQ ID NO: 2) at its … (human). Nature of the assay: Western blotting. Here is the method: The reactivity of anti-human membrane-anchored form ADAM28 antibody 2B6D10 with the above-mentioned fusion proteins was evaluated by Western blotting.
Assay [2] concerns the target T1, mouse membrane-anchored form ADAM28 (mouse, UniProt Q9JLN6 196-774).
T1 construct: Expressed on transfected CHO-K1 cells; also called mouse ADAM28m; mouse ADAM28
T1 chain: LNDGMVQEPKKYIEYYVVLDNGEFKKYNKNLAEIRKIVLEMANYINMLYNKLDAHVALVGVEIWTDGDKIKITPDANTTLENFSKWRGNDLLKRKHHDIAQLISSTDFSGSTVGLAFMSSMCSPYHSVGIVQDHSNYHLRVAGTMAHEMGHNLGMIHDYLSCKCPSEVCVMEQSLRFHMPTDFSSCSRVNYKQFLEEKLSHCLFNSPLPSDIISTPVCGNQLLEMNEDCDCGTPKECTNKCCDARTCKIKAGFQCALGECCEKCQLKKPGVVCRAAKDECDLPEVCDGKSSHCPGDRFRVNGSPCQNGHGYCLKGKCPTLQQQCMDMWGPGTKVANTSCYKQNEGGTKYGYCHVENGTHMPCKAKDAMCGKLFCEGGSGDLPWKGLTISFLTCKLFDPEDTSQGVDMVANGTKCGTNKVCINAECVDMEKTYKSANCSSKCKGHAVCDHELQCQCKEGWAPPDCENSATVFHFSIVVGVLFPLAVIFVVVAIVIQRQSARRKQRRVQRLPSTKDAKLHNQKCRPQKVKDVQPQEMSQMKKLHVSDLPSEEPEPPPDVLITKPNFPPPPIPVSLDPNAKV
Nature of the assay: immunofluorescence staining of transfected CHO-K1 cells, 5 µg/ml antibody. Here is the method:
CHO-K1 cells co-transfected with mouse membrane-anchored form ADAM28 and EGFP were treated with 2B6D10 antibody (5 μg/ml) at 4° C. for 1.5 hr. The cells were washed and treated with anti-mouse IgG-Alexa555 (1:300) at 4° C. for 1 hr. The cells were washed, fixed and observed. The results are shown in, FIG. 3.

For assay [3], the target named is T2, MBP-human ADAM28m 524-659 (human, UniProt Q9UKQ2 524-659).
T2 construct: also called the immunogen
T2 sequence: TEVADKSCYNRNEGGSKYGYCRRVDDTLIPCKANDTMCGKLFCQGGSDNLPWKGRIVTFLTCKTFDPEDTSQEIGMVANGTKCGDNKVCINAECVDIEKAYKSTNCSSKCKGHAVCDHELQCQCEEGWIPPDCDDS
Briefly: SPR, BIAcore 3000, fusion protein amine-coupled on CM5 chip, antibody injected. The protocol: (§1) A fusion protein in which a 524-659 region of human membrane-anchored form ADAM28 (SEQ ID NO: 2) is added to C-terminal of MBP (MBP-human ADAM28m 524-659) and a fusion protein in which a 527-622 region of mouse membrane-anchored form ADAM28 (SEQ ID NO: 26) is added to C-terminal of MBP (MBP-mouse ADAM28m 527-622) were each immobilized on CM5 sensor chip (GE Healthcare Life Sciences, Buckinghamshire, UK) by amine-coupling and 2B6D10 antibody was injected to a flow cell by using BIAcore 3000 (GE Healthcare Life Sciences). The KD value was calculated from the measured Ka and Kd values.

Assay [4] deals with T3, MBP-mouse ADAM28m 527-622 (mouse, UniProt Q9JLN6 527-622).
T3 sequence: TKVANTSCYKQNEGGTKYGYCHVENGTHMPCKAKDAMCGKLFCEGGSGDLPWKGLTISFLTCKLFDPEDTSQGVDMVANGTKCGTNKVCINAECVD
The assay is described as above. Here is the method:
as §1

As usually defined, the Kd is the concentration at which binding is half-saturated. High values mean lower affinity, low ones higher affinity.

B1: anti-human membrane-anchored form ADAM28 antibody 2B6D10 (antibody, V domains shown)
VH: QVQLQQSGAELARPGASVKLSCKASGYTFTSYGISWVKQRTGQGLEWIGEIYPRSGNTYYNEKFKGKATLTADKSSSTAYMELRRLTSEDSAVFFCARENVYSSNYGFAFWGQGTLVTVSA
VL: DVLMTQTPLSLPVSLGDQASISCRSSQNIIHSDGNTYLEWYLQKPGQSPKFLIYKVSNRFSGVPDRFSGSGSGTDFTLKISRVEAEDLGVYYCLQGSHVPWTFGGGTKLEIKR
notes: Mouse monoclonal antibody from a hybridoma, detected with anti-mouse IgG; also called 2B6D10 antibody; clone 2B6D10
With B1, the binding result in assay [1] and in assay [2] was “binds” throughout. Further, the Kd in assay [3] stood at 0.0935 nM; in assay [4] it was 0.236 nM.
